# Laboratory results taken from article PMC7613515, “Reading and erasing of the phosphonium analogue of trimethyllysine by epigenetic proteins” (Communications Chemistry, 2022).
# Read-outs that look alike come from different tables or passages of the source. Square brackets hold non-standard residues; d marks the D form. Ends that are not written are not given here. Lys(Me3) = C[N+](C)(C)CCCC[C@H](N)C(=O)O
# Assays:
# [1] = biological target: T1, KDM5APHD3 (JARID1A-PHD3, residues M1489–V1641) (Homo sapiens, UniProt P29375); test: ITC, association of histone H3 peptides with KDM5APHD3; type: binding; settings: 25 °C, H3 1-10 peptide (350–600 µM) into reader (25–40 µM), Tris (50 mM), NaCl (20 mM), pH 7.5, from 3 to 5 experiments
# T1 construct: KDM5APHD3 (JARID1A-PHD3, residues M1489–V1641); made in house; host or cells: E. coli
# T1 sequence (P29375 1489-1641): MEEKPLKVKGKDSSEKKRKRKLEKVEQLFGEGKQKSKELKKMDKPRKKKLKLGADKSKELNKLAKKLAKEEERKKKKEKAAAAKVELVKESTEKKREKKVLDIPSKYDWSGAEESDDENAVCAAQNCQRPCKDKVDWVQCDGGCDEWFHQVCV
# Text: (§1) We investigated the thermodynamics of association of the H3KP4me3 peptide with five representative human reader domains containing either a PHD zinc finger or TTD, i.e. KDM5APHD3 (JARID1A-PHD3, residues M1489–V1641)[10], TAF3PHD (R857–K924)[22], BPTFPHD (L2583–N2751)[23], SGF29TTD (R115–K293)[24] and KDM4ATTD (JMJD2A, Q897-P1011)[25], selected on the basis of their preference for binding Ν^ε-trimethyllysine over other (non)methylation marks (Kme0 < Kme1 < Kme2 < Kme3), and their domain and aromatic cage diversity. The recombinant readers were produced in E. coli following reported procedures. Isothermal titration calorimetric (ITC) analyses were used to determine the dissociation constant (Kd), the Gibbs free energy of binding (ΔG°), the enthalpy of binding (ΔH°), and the entropy of binding (ΔS°). […] (Table 1, Fig. 2, Supplementary Fig. 1).
# (§2) The following purified reader domains: TAF3PHD (R857-K924), KDM5APHD3 (JARID1A, M1489-V1641), BPTFPHD (L2583-N2751), KDM4ATTD (JMJD2A, Q897-P1011) and SGF29TTD (R115-K293) were prepared as reported[10],[22]–[26]. The histone lysine demethylase were produced and purified to high purity via reported procedures KDM3A (JMJD1A, T515-S1317)[41], KDM4AJmjC[39] (JMJD2A, M1-L359), KDM4EJmjC (JMJD2E, M1–Q337)[34] and KDM7B[40] (PHF8, M37-N483 [NP_001171]). KDM5DJmjC was produced using an N-terminal hexa-His tagged KDM4D (KDM4DM1-L358) DNA construct, transformed into BL21(DE3) competent cells for recombinant protein production. Colonies were used to inoculate of LB media (50 mL) containing kanamycin (50 µg·mL^−1) and chloramphenicol (34 µg·mL^−1), which was placed in a 37 °C shaker overnight. The starter culture (10 mL) was used to inoculate TB media (6 × 1 L) containing kanamycin (50 µg·mL^−1) in 2 L baffled shaker flasks. After reaching an of OD600 of ~0.8, the temperature was reduced to 18 °C; at OD600 ~0.9 the cells were induced by the IPTG (0.5 mM) addition. After shaking overnight, the culture was centrifuged (5000 rpm, 10 mins), the media was decanted, and the cell pellet was suspended in Lysis Buffer [HEPES (50 mM), NaCl (500 mM), imidazole (20 mM), glycerol (5%) and TCEP (0.5 mM) in water (pH 7.4)]. The suspension was lysed by passaging through a high-pressure cell breaker (Avestin – EmulsiFlex-C5) for three rounds. The lysate was cleared by centrifugation (60 minutes, 36,000 × g, 4 °C), then loaded onto a Ni NTA gravity column. […]
# (§3) ITC studies followed a reported procedure. […] Histone peptide titrations were performed with the same reader batches. Solutions of the reader in buffer (25–40 µM) and of the histone H3 peptide (350–600 µM) in buffer were prepared. […] Heats of dilution for histone peptides determined in control experiments were subtracted from the titration binding data. […]
# TAF3PHD (R857–K924) [2] = biological target: T2, TAF3PHD (R857–K924) (Mus musculus, UniProt Q5HZG4); test: ITC, association of histone H3 peptides with TAF3PHD; type: binding, human; settings: 25 °C, H3 1-10 peptide (350–600 µM) into reader (25–40 µM), Tris (50 mM), pH 7.5, from 3 to 5 experiments
# T2 construct: TAF3PHD (R857–K924); made in house; host or cells: E. coli
# T2 sequence (Q5HZG4 857-924 limits assumed): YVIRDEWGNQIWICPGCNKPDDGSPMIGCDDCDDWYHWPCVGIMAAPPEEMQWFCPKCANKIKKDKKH
# Text: as §1, §2, §3
# SGF29TTD (R115–K293) [3] = biological target: T3, SGF29TTD (R115–K293) (Homo sapiens, UniProt Q96ES7); test: ITC, association of histone H3 peptides with SGF29TTD; type: binding; settings: 25 °C, H3 1-10 peptide (350–600 µM) into reader (25–40 µM), pH 7.5, from 3 to 5 experiments
# T3 construct: SGF29TTD (R115–K293); made in house; host or cells: E. coli
# T3 sequence (Q96ES7 115-293): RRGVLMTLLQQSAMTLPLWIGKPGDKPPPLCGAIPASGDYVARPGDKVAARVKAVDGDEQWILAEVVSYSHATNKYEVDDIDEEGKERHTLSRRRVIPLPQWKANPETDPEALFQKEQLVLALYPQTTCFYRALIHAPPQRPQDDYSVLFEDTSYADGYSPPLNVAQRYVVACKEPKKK
# Text: as §1
# (§4) The following purified reader domains: TAF3PHD (R857-K924), KDM5APHD3 (JARID1A, M1489-V1641), BPTFPHD (L2583-N2751), KDM4ATTD (JMJD2A, Q897-P1011) and SGF29TTD (R115-K293) were prepared as reported[10],[22]–[26]. The histone lysine demethylase were produced and purified to high purity via reported procedures KDM3A (JMJD1A, T515-S1317)[41], KDM4AJmjC[39] (JMJD2A, M1-L359), KDM4EJmjC (JMJD2E, M1–Q337)[34] and KDM7B[40] (PHF8, M37-N483 [NP_001171]). KDM5DJmjC was produced using an N-terminal hexa-His tagged KDM4D (KDM4DM1-L358) DNA construct, transformed into BL21(DE3) competent cells for recombinant protein production. Colonies were used to inoculate of LB media (50 mL) containing kanamycin (50 µg·mL^−1) and chloramphenicol (34 µg·mL^−1), which was placed in a 37 °C shaker overnight. The starter culture (10 mL) was used to inoculate TB media (6 × 1 L) containing kanamycin (50 µg·mL^−1) in 2 L baffled shaker flasks. After reaching an of OD600 of ~0.8, the temperature was reduced to 18 °C; at OD600 ~0.9 the cells were induced by the IPTG (0.5 mM) addition. After shaking overnight, the culture was centrifuged (5000 rpm, 10 mins), the media was decanted, and the cell pellet was suspended in Lysis Buffer [HEPES (50 mM), NaCl (500 mM), imidazole (20 mM), glycerol (5%) and TCEP (0.5 mM) in water (pH 7.4)]. The suspension was lysed by passaging through a high-pressure cell breaker (Avestin – EmulsiFlex-C5) for three rounds. The lysate was cleared by centrifugation (60 minutes, 36,000 × g, 4 °C), then loaded onto a Ni NTA gravity column. After extensive rinsing of the Ni-NTA gravity column with lysis buffer, the His-tagged protein was eluted in lysis buffer containing 300 mM imidazole. The eluted protein was concentrated and subjected to gel filtration chromatography using an AKTA Xpress system, an S200 16/600 gel filtration column, and GF buffer [HEPES (50 mM), NaCl (150 mM), glycerol (5%) and TCEP (0.5 mM) in water (pH 7.4)]. The protein identity was verified by LC-MS (ESI-TOF) observing a mass of 43759.7 Da, in accord with the predicted mass of 43751.6 Da.
# ITC studies followed a reported procedure. The buffer used corresponded to that used in the final protein purification step. […] Histone peptide titrations were performed with the same reader batches. Solutions of the reader in buffer (25–40 µM) and of the histone H3 peptide (350–600 µM) in buffer were prepared. […] Heats of dilution for histone peptides determined in control experiments were subtracted from the titration binding data. […]
# [4] = biological target: T4, KDM4ATTD (JMJD2A, Q897-P1011) (Homo sapiens, UniProt O75164); test: ITC, association of histone H3 peptides with KDM4ATTD; type: binding; settings: 25 °C, H3 1-10 peptide (350–600 µM) into reader (25–40 µM), Tris (50 mM), pH 7.5, from 3 to 5 experiments
# T4 construct: KDM4ATTD (JMJD2A, Q897-P1011); made in house; host or cells: E. coli
# T4 sequence (O75164 897-1011): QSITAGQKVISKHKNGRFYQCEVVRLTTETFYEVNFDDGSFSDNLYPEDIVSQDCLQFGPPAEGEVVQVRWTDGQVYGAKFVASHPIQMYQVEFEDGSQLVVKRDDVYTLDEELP
# Text: as §1, §4
# ITC studies followed a reported procedure. The buffer used corresponded to that used in the final protein purification step. Briefly, TAF3PHD and KDM4ATTD: [Tris (50 mM) in water (pH 7.5)]; KDM5APHD3 and BTPFPHD: [Tris (50 mM), NaCl (20 mM) in water (pH 7.5)]; [Tris (25 mM), NaCl (50 mM), 1,4-dithiothreitol (1.0 mM) in water (pH 7.5)]. Experiments were conducted using ITC200 automated (GE Healthcare Life Sciences, USA) instrument at 25 °C. Histone peptide titrations were performed with the same reader batches. Solutions of the reader in buffer (25–40 µM) and of the histone H3 peptide (350–600 µM) in buffer were prepared. The prepared solutions were plated into a 96-well plate and inserted into the instrument for analysis. Experiments were performed according to manufacturer’s default settings: Plate pre-rinse syringe clean. A total of 19 injections were performed; each experiment was repeated 3–5 times. Heats of dilution for histone peptides determined in control experiments were subtracted from the titration binding data. […]
# BPTFPHD (L2583–N2751) = biological target: T5, BPTFPHD (L2583–N2751) (Homo sapiens, UniProt Q12830); settings: reported, ITC, H3 1-10, cited from earlier work
# T5 construct: BPTFPHD (L2583–N2751); made in house; host or cells: E. coli
# [5] = biological target: T1, KDM5APHD3 (JARID1A-PHD3, residues M1489–V1641); settings: reported, ITC, H3 1-10, cited from earlier work
# Text: page 30: Supplementary Table 5 Overview of reported ITC binding values of chromatin binding modules with H3 peptides (K d in µM) with various lysine modification. […] N.D. not determined; N.M: not measured. Modification KDM5A PHD3 TAF3PHD BPTFPHD SGF29TT ...
# [6] = biological target: T4, KDM4ATTD (JMJD2A, Q897-P1011); settings: reported, ITC, H3 1-10, cited from earlier work
# Text: (§5) N.D. not determined; N.M: not measured. Modification KDM5A PHD3 TAF3PHD BPTFPHD SGF29TT ...
# SGF29TTD (R115–K293) [7] = biological target: T3, SGF29TTD (R115–K293); settings: reported, ITC, H3 1-10, cited from earlier work
# Text: as §5
# TAF3PHD (R857–K924) [8] = biological target: T2, TAF3PHD (R857–K924); settings: reported, ITC, H3 1-10, cited from earlier work
# Text: as §5
# [9] = cited from earlier work
# Text: Some JmjC KDMs can also catalyse N-methyl arginine demethylation and with appropriately sized N^ε-substitutions some can catalyse forma ...
# KDM4E = settings: reported, shorter H3_7-14K9me3 substrate; cited from earlier work
# Text: Reactions were monitored using MALDI-TOF mass spectrometry (Fig. 5b–d). […] Some JmjC KDMs can also catalyse N-methyl arginine demethylation and with appropriately sized N^ε-substitutions some can catalyse forma ...
molecule,measurement,setting,value
"C[C@H](N)C(=O)N[C@@H](CCCNC(=N)N)C(=O)N[C@H](C(=O)N[C@@H](CCCC[N+](C)(C)C)C(=O)N[C@@H](CCC(N)=O)C(=O)N[C@H](C(=O)N[C@@H](C)C(=O)N[C@@H](CCCNC(=N)N)C(=O)N[C@@H](CCCCN)C(=O)N[C@@H](CO)C(N)=O)[C@@H](C)O)[C@@H](C)O [H3K4me3, reference compound]",Kd,[1],520 nM
same,Kd,TAF3PHD (R857–K924) [2],110 nM
same,Kd,SGF29TTD (R115–K293) [3],3200 nM
same,Kd,[4],3500 nM
"K4Cme3: H3 1-10 peptide with K4Cme3 modification, Hintzen et al.",Kd,BPTFPHD (L2583–N2751); ref Hintzen et al. (SI ref 11),3800 nM
"L-K4me3: H3 1-10 peptide with L-K4me3 modification, Belle et al.",Kd,[5]; ref Belle et al. (SI ref 8),110 nM
same,Kd,[6]; ref Belle et al. (SI ref 8),1100 nM
same,Kd,SGF29TTD (R115–K293) [7]; ref Belle et al. (SI ref 8),1700 nM
same,Kd,TAF3PHD (R857–K924) [8]; ref Belle et al. (SI ref 8),82 nM
same,Kd,BPTFPHD (L2583–N2751); ref Belle et al. (SI ref 8),440 nM
"C[N+](C)(C)C [^+Nme4, reference compound]",volume,[9],105 Å^3
"H3_7-14K9me3: shorter H3_7-14K9me3 substrate (AR[Lys(Me3)]STGGK; UniProt P68431 8-15, looked up, fragment)",Km,KDM4E,21.3 µM
same,kcat,KDM4E,0.0767 s⁻¹
"K4Cme3: H3 1-10 peptide with K4Cme3 modification, Hintzen et al. (ARTCQTARKS; Cys4 S-alkylated with 2-(trimethylammonio)ethyl = trimethylthialysine, a cysteine-derived trimethyllysine analogue (identity inferred from the cited Hintzen et al. work))",Kd,[5]; ref Hintzen et al. (SI ref 11),150 nM
same,Kd,[6]; ref Hintzen et al. (SI ref 11),3100 nM
same,Kd,SGF29TTD (R115–K293) [7]; ref Hintzen et al. (SI ref 11),6100 nM
same,Kd,TAF3PHD (R857–K924) [8]; ref Hintzen et al. (SI ref 11),42 nM
K4G: K4me3 in H3K4me3 substituted for glycine (ARTGQTARKS),Kd,[5]; ref Kamps et al. (SI ref 9),88000 nM
same,Kd,TAF3PHD (R857–K924) [8]; ref Kamps et al. (SI ref 9),36000 nM
"C[P+](C)(C)C.[I-] [^+Pme4, reference compound]",volume,[9],115 Å^3
